Assay results taken from patent US20200262877A1, “ION CHANNEL-BINDING PEPTIDES AND METHODS OF USE THEREOF” (priority 2017, published 2020).

Key:
[1] = biological target: T1, 5HT3a (Homo sapiens, UniProt P46098); assay: Ion channel panel (IonWorks Barracuda): 5HT3a; format: cell-based
T1 construct: host or cells: HEK293 or CHO
T1 sequence (P46098 whole entry, looked up): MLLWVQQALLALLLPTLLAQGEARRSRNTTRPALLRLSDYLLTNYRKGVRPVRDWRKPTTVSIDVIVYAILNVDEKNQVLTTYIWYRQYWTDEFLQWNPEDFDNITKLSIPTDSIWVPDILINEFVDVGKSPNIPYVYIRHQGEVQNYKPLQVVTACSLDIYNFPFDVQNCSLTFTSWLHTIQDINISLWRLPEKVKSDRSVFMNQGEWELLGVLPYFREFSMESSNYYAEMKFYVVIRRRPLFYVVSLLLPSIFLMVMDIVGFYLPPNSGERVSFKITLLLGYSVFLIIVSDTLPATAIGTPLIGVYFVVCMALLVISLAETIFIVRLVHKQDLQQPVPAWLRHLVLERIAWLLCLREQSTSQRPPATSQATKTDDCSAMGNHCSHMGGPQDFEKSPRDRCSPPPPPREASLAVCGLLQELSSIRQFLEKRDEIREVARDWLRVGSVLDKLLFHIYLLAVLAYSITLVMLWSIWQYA
How it was run: (§1)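 Transfected HEK293 or CHO cells were exposed for at least 5 min to peptides at 200 nM and 20 μM final, tested in duplicate, in HEPES-buffered physiological saline. Activation was taken as peptide-plus-agonist current over control current ×100, and inhibition as 1 minus that ratio ×100. Each channel's control was its own reference compound.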

[2] = biological target: T2, α4β2 (Homo sapiens, UniProt P17787+P43681); assay: Ion channel panel (IonWorks Barracuda): α4β2; format: cell-based; details: 100% = no change, <100% = inhibition
T2 construct: host or cells: HEK293 or CHO
How it was run: as §1

[3] = system: GABA; assay: Ion channel panel (IonWorks Barracuda): GABA; format: cell-based; details: 100% = no change, <100% = inhibition
How it was run: as §1

[4] = biological target: T3, Nav1.7 (Homo sapiens, UniProt Q15858); assay: cell-based; format: cell-based; details: 100% = no change; for Activity of Nav1.7 with peptide, expressed as a percentage of the reference compound: peptide at 0.2 μM; for Activity of Nav1.7 with peptide (percentage of the reference compound): peptide at 20 μM
T3 construct: host or cells: HEK293 or CHO
T3 sequence (Q15858 whole entry): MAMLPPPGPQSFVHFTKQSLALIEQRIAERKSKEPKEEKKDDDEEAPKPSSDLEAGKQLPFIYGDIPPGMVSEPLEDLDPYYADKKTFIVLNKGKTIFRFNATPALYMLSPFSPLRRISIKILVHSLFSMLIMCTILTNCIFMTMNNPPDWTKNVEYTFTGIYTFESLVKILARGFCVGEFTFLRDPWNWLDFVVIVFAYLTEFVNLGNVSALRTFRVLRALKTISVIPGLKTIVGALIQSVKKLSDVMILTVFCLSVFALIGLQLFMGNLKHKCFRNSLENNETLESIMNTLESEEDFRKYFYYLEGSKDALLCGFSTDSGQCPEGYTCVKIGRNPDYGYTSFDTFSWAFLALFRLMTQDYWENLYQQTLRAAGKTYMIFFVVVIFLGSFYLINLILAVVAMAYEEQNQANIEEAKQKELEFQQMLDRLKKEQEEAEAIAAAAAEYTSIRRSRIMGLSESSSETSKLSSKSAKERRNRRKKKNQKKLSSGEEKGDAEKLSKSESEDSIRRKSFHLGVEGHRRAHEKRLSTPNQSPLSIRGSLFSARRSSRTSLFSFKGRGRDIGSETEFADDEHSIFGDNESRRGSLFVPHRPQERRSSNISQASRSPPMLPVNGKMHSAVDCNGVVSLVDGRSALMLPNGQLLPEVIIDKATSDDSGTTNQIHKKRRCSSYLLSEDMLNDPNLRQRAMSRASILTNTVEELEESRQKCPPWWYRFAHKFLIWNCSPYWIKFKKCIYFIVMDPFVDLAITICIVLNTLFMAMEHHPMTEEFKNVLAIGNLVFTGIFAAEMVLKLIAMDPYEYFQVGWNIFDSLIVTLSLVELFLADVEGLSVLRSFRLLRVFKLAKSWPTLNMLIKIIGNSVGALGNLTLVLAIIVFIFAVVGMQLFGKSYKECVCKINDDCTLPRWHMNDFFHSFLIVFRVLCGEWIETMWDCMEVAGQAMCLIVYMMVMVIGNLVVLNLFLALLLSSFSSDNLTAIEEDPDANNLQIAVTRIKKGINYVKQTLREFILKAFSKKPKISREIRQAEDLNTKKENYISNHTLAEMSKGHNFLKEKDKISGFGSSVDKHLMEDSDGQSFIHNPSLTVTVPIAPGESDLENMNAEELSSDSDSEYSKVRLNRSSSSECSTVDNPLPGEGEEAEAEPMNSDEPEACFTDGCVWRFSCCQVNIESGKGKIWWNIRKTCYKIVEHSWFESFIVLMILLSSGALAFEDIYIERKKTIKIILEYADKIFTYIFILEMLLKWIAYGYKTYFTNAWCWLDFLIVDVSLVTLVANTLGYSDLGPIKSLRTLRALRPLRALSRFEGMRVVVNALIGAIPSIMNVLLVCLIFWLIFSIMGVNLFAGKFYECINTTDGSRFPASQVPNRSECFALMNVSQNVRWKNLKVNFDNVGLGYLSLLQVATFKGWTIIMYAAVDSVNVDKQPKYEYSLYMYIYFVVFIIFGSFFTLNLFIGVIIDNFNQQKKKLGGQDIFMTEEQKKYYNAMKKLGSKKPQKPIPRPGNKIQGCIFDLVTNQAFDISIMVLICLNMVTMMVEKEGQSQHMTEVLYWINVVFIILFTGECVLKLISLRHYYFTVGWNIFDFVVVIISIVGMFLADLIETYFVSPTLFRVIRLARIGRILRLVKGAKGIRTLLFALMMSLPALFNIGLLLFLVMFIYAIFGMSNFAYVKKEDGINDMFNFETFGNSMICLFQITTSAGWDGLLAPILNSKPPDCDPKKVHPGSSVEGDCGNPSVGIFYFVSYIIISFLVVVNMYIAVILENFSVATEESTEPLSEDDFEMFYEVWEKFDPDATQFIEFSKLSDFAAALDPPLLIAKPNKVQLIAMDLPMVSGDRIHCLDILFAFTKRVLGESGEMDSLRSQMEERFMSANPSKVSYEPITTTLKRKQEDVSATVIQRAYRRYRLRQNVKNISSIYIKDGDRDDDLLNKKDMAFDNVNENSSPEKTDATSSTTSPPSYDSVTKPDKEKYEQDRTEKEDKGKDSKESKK

[5] = biological target: T4, Kv1.1 (Homo sapiens, UniProt Q09470); assay: cell-based; format: cell-based; details: 100% = no change, <100% = inhibition
T4 construct: host or cells: HEK293 or CHO
T4 sequence (Q09470 whole entry): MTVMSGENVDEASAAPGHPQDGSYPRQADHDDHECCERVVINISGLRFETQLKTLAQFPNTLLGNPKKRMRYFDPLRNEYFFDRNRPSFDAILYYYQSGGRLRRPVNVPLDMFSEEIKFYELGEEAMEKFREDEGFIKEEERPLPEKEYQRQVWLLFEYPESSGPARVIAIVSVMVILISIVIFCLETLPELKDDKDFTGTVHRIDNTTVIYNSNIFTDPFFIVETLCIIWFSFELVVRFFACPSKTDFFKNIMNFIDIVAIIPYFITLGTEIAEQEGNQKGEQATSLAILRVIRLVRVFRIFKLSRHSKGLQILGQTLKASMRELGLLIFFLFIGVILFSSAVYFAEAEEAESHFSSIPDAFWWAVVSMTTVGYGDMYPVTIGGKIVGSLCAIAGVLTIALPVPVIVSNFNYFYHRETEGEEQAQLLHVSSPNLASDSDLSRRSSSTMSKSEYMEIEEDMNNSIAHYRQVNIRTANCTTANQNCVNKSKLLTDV
How it was run: as §1

[6] = biological target: T5, Kv1.3 (Homo sapiens, UniProt P22001); assay: cell-based; format: cell-based; details: 100% = no change, <100% = inhibition
T5 construct: host or cells: HEK293 or CHO
How it was run: as §1

[7] = biological target: T6, Kv1.2 (Homo sapiens, UniProt P16389); assay: cell-based; format: cell-based; details: 100% = no change, <100% = inhibition
T6 construct: host or cells: HEK293 or CHO
T6 sequence (P16389 whole entry): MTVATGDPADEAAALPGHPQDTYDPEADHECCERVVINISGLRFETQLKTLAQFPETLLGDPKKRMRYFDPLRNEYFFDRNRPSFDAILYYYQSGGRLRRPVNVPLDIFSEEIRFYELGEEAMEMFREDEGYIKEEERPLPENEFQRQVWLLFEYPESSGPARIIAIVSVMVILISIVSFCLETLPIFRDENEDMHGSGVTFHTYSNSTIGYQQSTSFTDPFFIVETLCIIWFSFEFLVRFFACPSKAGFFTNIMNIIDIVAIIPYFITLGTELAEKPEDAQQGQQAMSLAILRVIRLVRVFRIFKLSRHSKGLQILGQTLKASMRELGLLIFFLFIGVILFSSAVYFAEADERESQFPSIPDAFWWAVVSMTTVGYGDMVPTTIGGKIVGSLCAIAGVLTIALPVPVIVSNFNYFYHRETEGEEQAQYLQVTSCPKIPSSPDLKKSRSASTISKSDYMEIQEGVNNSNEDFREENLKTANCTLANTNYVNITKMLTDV
How it was run: as §1

[8] = biological target: T7, TRPA1 (Homo sapiens, UniProt O75762); assay: Ion channel panel (IonWorks Barracuda): TRPA1; format: cell-based; details: 100% = no change, <100% = inhibition
T7 construct: host or cells: HEK293 or CHO
How it was run: as §1

[9] = biological target: T8, Kir2.1 (Homo sapiens, UniProt P63252); assay: Ion channel panel (IonWorks Barracuda): Kir2.1; format: cell-based; details: 100% = no change, <100% = inhibition
T8 construct: host or cells: HEK293 or CHO
How it was run: as §1

[10] = biological target: T9, NR2B (Homo sapiens, UniProt Q13224); assay: Ion channel panel (IonWorks Barracuda): NR2B; format: cell-based; details: 100% = no change, <100% = inhibition
T9 construct: host or cells: HEK293 or CHO
How it was run: as §1

[11] = biological target: T10, Kv2.1 (Homo sapiens, UniProt Q14721); assay: cell-based; details: 100% = no change, <100% = inhibition
T10 construct: host or cells: HEK293 or CHO
How it was run: as §1

[12] = biological target: T11, Cav2.2 (Homo sapiens, UniProt Q00975); assay: cell-based; details: 100% = no change, <100% = inhibition
T11 construct: host or cells: HEK293 or CHO
How it was run: as §1

[13] = biological target: T12, Cav2.1 (Homo sapiens, UniProt O00555); assay: cell-based; details: 100% = no change, <100% = inhibition
T12 construct: host or cells: HEK293 or CHO
How it was run: as §1

[14] = biological target: hERG (Homo sapiens, UniProt Q12809); assay: in vitro; details: 100% = no change, <100% = inhibition
How it was run: as §1

[15] = biological target: Nav1.5 (Homo sapiens, UniProt Q14524); assay: in vitro; details: 100% = no change; for Activity of Nav1.5 with peptide, expressed as a percentage of the reference compound: peptide at 0.2 μM; for Activity of Nav1.5 with peptide (percentage of the reference compound): peptide at 20 μM
Nav1.5, sequence (Q14524 whole entry): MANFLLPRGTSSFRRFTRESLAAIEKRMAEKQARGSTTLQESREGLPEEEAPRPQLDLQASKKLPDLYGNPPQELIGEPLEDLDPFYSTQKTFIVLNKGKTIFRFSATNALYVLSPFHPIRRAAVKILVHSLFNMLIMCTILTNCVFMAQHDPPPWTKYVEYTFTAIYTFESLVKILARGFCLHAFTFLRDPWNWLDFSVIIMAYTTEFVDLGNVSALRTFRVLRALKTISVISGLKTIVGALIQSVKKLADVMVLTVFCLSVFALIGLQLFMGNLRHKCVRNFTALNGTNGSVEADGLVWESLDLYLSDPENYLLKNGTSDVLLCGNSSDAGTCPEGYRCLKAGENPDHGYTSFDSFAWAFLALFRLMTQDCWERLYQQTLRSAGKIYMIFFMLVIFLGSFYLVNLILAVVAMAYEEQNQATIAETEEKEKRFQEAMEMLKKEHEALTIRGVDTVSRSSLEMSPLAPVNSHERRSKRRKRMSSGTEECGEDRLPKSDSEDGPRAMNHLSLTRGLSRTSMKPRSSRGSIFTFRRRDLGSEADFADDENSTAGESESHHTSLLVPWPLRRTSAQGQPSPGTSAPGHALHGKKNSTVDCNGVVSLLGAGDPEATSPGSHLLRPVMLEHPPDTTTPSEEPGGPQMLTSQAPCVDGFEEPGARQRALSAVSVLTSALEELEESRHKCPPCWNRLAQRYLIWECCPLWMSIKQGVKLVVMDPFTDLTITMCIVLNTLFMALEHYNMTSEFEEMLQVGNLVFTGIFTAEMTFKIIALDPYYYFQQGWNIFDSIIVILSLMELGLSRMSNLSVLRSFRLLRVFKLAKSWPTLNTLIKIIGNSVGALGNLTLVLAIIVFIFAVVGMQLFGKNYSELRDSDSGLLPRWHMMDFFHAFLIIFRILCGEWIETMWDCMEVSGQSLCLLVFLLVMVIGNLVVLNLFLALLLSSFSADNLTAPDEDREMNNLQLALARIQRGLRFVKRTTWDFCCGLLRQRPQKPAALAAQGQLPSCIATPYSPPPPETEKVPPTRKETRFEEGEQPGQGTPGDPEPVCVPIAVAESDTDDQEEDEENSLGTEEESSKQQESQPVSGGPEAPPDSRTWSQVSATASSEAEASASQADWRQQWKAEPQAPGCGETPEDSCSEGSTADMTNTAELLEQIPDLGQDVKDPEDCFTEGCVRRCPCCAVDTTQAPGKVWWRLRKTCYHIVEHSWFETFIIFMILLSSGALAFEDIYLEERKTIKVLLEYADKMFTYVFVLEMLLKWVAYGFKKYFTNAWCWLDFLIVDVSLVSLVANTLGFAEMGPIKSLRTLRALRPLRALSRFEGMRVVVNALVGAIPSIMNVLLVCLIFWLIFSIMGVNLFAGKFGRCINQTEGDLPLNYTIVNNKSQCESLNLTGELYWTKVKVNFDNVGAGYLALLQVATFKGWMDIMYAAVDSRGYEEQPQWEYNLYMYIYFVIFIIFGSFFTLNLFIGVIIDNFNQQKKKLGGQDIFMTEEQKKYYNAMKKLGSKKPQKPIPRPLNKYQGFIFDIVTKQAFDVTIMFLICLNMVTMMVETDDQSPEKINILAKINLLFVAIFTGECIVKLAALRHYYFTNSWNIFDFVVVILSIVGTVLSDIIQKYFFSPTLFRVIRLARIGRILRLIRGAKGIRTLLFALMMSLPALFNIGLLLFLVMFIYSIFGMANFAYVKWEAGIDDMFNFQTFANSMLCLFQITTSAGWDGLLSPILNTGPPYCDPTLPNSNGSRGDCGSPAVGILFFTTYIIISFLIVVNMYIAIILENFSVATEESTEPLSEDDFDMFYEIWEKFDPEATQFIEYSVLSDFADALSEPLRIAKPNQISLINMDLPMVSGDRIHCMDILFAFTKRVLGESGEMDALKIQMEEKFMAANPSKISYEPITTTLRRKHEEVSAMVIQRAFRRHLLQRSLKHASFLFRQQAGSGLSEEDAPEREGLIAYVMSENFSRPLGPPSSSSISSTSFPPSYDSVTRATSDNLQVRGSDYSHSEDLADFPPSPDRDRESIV
How it was run: as §1

[16] = biological target: T13, α3β4 (Homo sapiens, UniProt P30926+P32297); assay: Ion channel panel (IonWorks Barracuda): α3β4; format: cell-based; details: 100% = no change, <100% = inhibition
T13 construct: host or cells: HEK293 or CHO
How it was run: as §1

[17] = biological target: T14, NR2A (Homo sapiens, UniProt Q12879); assay: Ion channel panel (IonWorks Barracuda): NR2A; format: cell-based; details: 100% = no change, <100% = inhibition
T14 construct: host or cells: HEK293 or CHO
How it was run: as §1

[18] = biological target: T15, TRPV1 (Homo sapiens, UniProt Q8NER1); assay: Ion channel panel (IonWorks Barracuda): TRPV1; format: cell-based; details: 100% = no change, <100% = inhibition
T15 construct: host or cells: HEK293 or CHO
How it was run: as §1

[19] = first of two Nav1.7 columns (probably TP1)
[20] = second of two Nav1.7 columns (probably TP2)
[21] = first of two Nav1.5 columns (probably TP1)
[22] = second of two Nav1.5 columns (probably TP2)

19 (GSQFTDVKCTGSKQCWPVCKQMFGKPNGKCMNGKCRCYS) [compound 19]
Activity of 5HT3a with peptide (percentage of the reference compound) [1]: 69% | Activity of 5HT3a with peptide, expressed as a percentage of the reference compound [1]: 89% | Activity of a4b2 with peptide, expressed as a percentage of the reference compound ([2]; peptide at 0.2 μM): 99% | Activity of a4b2 with peptide (percentage of the reference compound) ([2]; peptide at 20 μM): 93% | Activity of GABA with peptide, expressed as a percentage of the reference compound ([3]; peptide at 0.2 μM): 93% | Activity of GABA with peptide (percentage of the reference compound) ([3]; peptide at 20 μM): 111% | Activity of Nav1.7 with peptide, expressed as a percentage of the reference compound [4, 19]: 91% | Activity of Nav1.7 with peptide, expressed as a percentage of the reference compound [4, 20]: 92% | Activity of Nav1.7 with peptide (percentage of the reference compound) [4, 19]: 121% | Activity of Nav1.7 with peptide (percentage of the reference compound) [4, 20]: 140% | Activity of Kv1.1 with peptide, expressed as a percentage of the reference compound ([5]; peptide at 0.2 μM): 100% | Activity of Kv1.1 with peptide (percentage of the reference compound) ([5]; peptide at 20 μM): 44% | Activity of Kv1.3 with peptide, expressed as a percentage of the reference compound ([6]; peptide at 0.2 μM): 4% | Activity of Kv1.3 with peptide (percentage of the reference compound) ([6]; peptide at 20 μM): −1% | Activity of Kv1.2 with peptide, expressed as a percentage of the reference compound ([7]; peptide at 0.2 μM): 41% | Activity of Kv1.2 with peptide (percentage of the reference compound) ([7]; peptide at 20 μM): 37% | Activity of TRPA1 with peptide, expressed as a percentage of the reference compound ([8]; peptide at 0.2 μM): 126% | Activity of TRPA1 with peptide (percentage of the reference compound) ([8]; peptide at 20 μM): 109% | Activity of Kir2.1 with peptide, expressed as a percentage of the reference compound ([9]; peptide at 0.2 μM): 107% | Activity of Kir2.1 with peptide (percentage of the reference compound) ([9]; peptide at 20 μM): 93% | Activity of NR2B with peptide, expressed as a percentage of the reference compound ([10]; peptide at 0.2 μM): 117% | Activity of NR2B with peptide (percentage of the reference compound) ([10]; peptide at 20 μM): 130% | Activity of Kv2.1 with peptide, expressed as a percentage of the reference compound ([11]; peptide at 0.2 μM): 95% | Activity of Kv2.1 with peptide (percentage of the reference compound) ([11]; peptide at 20 μM): 108% | Activity of Cav2.2 with peptide, expressed as a percentage of the reference compound ([12]; peptide at 0.2 μM): 116% | Activity of Cav2.2 with peptide (percentage of the reference compound) ([12]; peptide at 20 μM): 94% | Activity of Cav2.1 with peptide, expressed as a percentage of the reference compound ([13]; peptide at 0.2 μM): 106% | Activity of Cav2.1 with peptide (percentage of the reference compound) ([13]; peptide at 20 μM): 109% | Activity of hERG with peptide, expressed as a percentage of the reference compound ([14]; peptide at 0.2 μM): 98% | Activity of hERG with peptide (percentage of the reference compound) ([14]; peptide at 20 μM): 86% | Activity of Nav1.5 with peptide, expressed as a percentage of the reference compound [15, 21]: 112% | Activity of Nav1.5 with peptide, expressed as a percentage of the reference compound [15, 22]: 114% | Activity of Nav1.5 with peptide (percentage of the reference compound) [15, 21]: 117% | Activity of Nav1.5 with peptide (percentage of the reference compound) [15, 22]: 117% | Activity of a3b4 with peptide, expressed as a percentage of the reference compound ([16]; peptide at 0.2 μM): 101% | Activity of a3b4 with peptide (percentage of the reference compound) ([16]; peptide at 20 μM): 97% | Activity of NR2A with peptide, expressed as a percentage of the reference compound ([17]; peptide at 0.2 μM): 90% | Activity of NR2A with peptide (percentage of the reference compound) ([17]; peptide at 20 μM): 99% | Activity of TRPV1 with peptide, expressed as a percentage of the reference compound ([18]; peptide at 0.2 μM): 94% | Activity of TRPV1 with peptide (percentage of the reference compound) ([18]; peptide at 20 μM): 90%
